Data published in patent US20160194394A1 (GOVERNING COUNCIL OF THE UNIVERSITY OF TORONTO, published 2016).

What was measured:
[1] = molecular target: T1, recombinant Frizzled receptor 7 (FZD7) cysteine-rich domain (CRD) fused to the Fc region of human IgG (human, UniProt O75084 33-185); test: ELISA, 1ug/ml (20nM) Fab
Protocol: (§1) FIG. 2B is a table depicting the binding of purified Fabs to purified FZD7-Fc measured by ELISA. Fabs purified from 25 ml bacterial cultures were assayed for binding to FZD7-Fc fusion protein (R&D systems) and Fc protein. ELISA plates (384 well) were coated with 2 ug/ml of protein in PBS overnight at four degrees. Wells were blocked with 0.5% BSA/PBS for 1 hour at room temperature, washed three times with 0.05% Tween20/PBS (wash buffer), and then primary dilutions of Fabs in 0.5% BSA/0.05% Tween20/PBS (dilution buffer) were added at indicated concentrations. Fabs were incubated for 1 hour at room temperature, wells were washed six times, and anti-FLAG-HRP (Sigma) was added at 1:5000 in dilution buffer. Secondary antibody was incubated for 45 minutes at room temperature, and wells were washed six times and developed with TMB substrate with an acid stop. The absorbance at 450 nm was read. n.t.=not tested.

[2] = molecular target: T2, Fc control protein; test: ELISA, 1ug/ml (20nM) Fab
T2 construct: also called Fc protein; control Fc protein
Protocol: as §1

[3] = molecular target: T1, recombinant Frizzled receptor 7 (FZD7) …; test: ELISA, 10ug/ml (200nM) Fab
Protocol: as §1

[4] = molecular target: T2, Fc control protein; test: ELISA, 10ug/ml (200nM) Fab
Protocol: as §1

[5] = molecular target: T3, FZD7 receptor expressed on cells (full-length) (UniProt O75084 33-574, limits assumed); test: flow cytometry, 200 nM Fab, MDA MB 231
T3 construct: whole, on cells; MDA MB 231 cells may carry other Frizzled receptors too; also called full-length FZD7 receptor; endogenous receptor on MDA MB 231 cells
Protocol: (§2) FIG. 3 is a table depicting the binding of the purified Fabs to cells expressing FZD7 (flow cytometry). Small scale Fabs were assayed for binding to full-length FZD7 receptor to an over-expression line in MDA MB 231 cells. In parallel, Fabs were assayed for binding to endogenous receptor expressed on the MDA MB 231 cells. Cells were harvested using an EDTA solution, blocked in 2% FBS/PBS (stain buffer), and stained with 200 nM Fab for 30 min on ice. Cells were washed two times with stain buffer and incubated with anti-F(ab′)₂-APC secondary antibody (Jackson Immuno) at 1:1000 for 15 minutes on ice. All antibodies were diluted in stain buffer. Cells were washed three times with stain buffer and then fixed with 1% paraformaldehye for analysis by flow cytometry. […] The percent of the cell population within the positive gates is indicated.

[6] = molecular target: T3, FZD7 receptor expressed on cells …; test: flow cytometry, 200 nM Fab, FZD7 over-expression line (MDA MB 231)
Protocol: as §2

Row | OD 450 [1] | OD 450 [2] | OD 450 [3] | OD 450 [4] | % population within the positive gate [5] [%] | % population within the positive gate [6] [%] | Binder
1 | 2.82 | 0.06 | 2.99 | 0.06 | 35 | 88.4 | B10 (Fab, selection round 2; not the round 3 clone B10 (f30); also called Fzd7-R2-B10) light: DIQMTQSPSSLSASVGDRVTITCRASQSVSSAVAWYQQKPGKAPKLLIYSASSLYSGVPSRFSGSRSGTDFTLTISSLQPEDFATYYCQQGSVWLFTFGQGTKVEIKRTVAAPSVFIFPPSDSQLKSGTASVVCLLNNFYPREAKVQWKVDNALQSGNSQESVTEQDSKDSTYSLSSTLTLSKADYEKHKVYACEVTHQGLSSPVTKSFNRGECGGS heavy: EVQLVESGGGLVQPGGSLRLSCAASGFNISSSSMHWVRQAPGKGLEWVASISSSSSYTYYADSVKGRFTISADTSKNTAYLQMNSLRAEDTAVYYCARYGSHWSPSYSGWYYYSYALDYWGQGTLVTVSSASTKGPSVFPLAPSSKSTSGGTAALGCLVKDYFPEPVTVSWNSGALTSGVHTFPAVLQSSGLYSLSSVVTVPSSSLGTQTYICNVNHKPSNTKVDKKVEPKSC
2 | 3.15 | 0.05 | 3.17 | 0.07 | 5.1 | 85.4 | G4 (Fab, selection round 2; same four CDRs as Fzd7-R2-B2 (f22); also called Fzd7-R2-G4) light: DIQMTQSPSSLSASVGDRVTITCRASQSVSSAVAWYQQKPGKAPKLLIYSASSLYSGVPSRFSGSRSGTDFTLTISSLQPEDFATYYCQQAYAYLITFGQGTKVEIKRTVAAPSVFIFPPSDSQLKSGTASVVCLLNNFYPREAKVQWKVDNALQSGNSQESVTEQDSKDSTYSLSSTLTLSKADYEKHKVYACEVTHQGLSSPVTKSFNRGECGGS heavy: EVQLVESGGGLVQPGGSLRLSCAASGFNISYSSMHWVRQAPGKGLEWVASISSSYGYTYYADSVKGRFTISADTSKNTAYLQMNSLRAEDTAVYYCARSGGHFYYWYVAAAMDYWGQGTLVTVSSASTKGPSVFPLAPSSKSTSGGTAALGCLVKDYFPEPVTVSWNSGALTSGVHTFPAVLQSSGLYSLSSVVTVPSSSLGTQTYICNVNHKPSNTKVDKKVEPKSC
3 | 3.17 | 0.07 | 3.17 | 0.06 | 6.3 | 86.2 | E5 (Fab, selection round 2; also called Fzd7-R2-E5) light: DIQMTQSPSSLSASVGDRVTITCRASQSVSSAVAWYQQKPGKAPKLLIYSASSLYSGVPSRFSGSRSGTDFTLTISSLQPEDFATYYCQQASWYPITFGQGTKVEIKRTVAAPSVFIFPPSDSQLKSGTASVVCLLNNFYPREAKVQWKVDNALQSGNSQESVTEQDSKDSTYSLSSTLTLSKADYEKHKVYACEVTHQGLSSPVTKSFNRGECGGS heavy: EVQLVESGGGLVQPGGSLRLSCAASGFNIYSSSMHWVRQAPGKGLEWVASIYSSYGYTSYADSVKGRFTISADTSKNTAYLQMNSLRAEDTAVYYCARPGYWGYYWGAYGMDYWGQGTLVTVSSASTKGPSVFPLAPSSKSTSGGTAALGCLVKDYFPEPVTVSWNSGALTSGVHTFPAVLQSSGLYSLSSVVTVPSSSLGTQTYICNVNHKPSNTKVDKKVEPKSC
4 | 3.15 | 0.05 | 3.22 | 0.07 | 99.4 | 90.7 | E9 (Fab, selection round 2; not the round 3 clone E9 (f29); also called Fzd7-R2-E9) light: DIQMTQSPSSLSASVGDRVTITCRASQSVSSAVAWYQQKPGKAPKLLIYSASSLYSGVPSRFSGSRSGTDFTLTISSLQPEDFATYYCQQSYVGGPFTFGQGTKVEIKRTVAAPSVFIFPPSDSQLKSGTASVVCLLNNFYPREAKVQWKVDNALQSGNSQESVTEQDSKDSTYSLSSTLTLSKADYEKHKVYACEVTHQGLSSPVTKSFNRGECGGS heavy: EVQLVESGGGLVQPGGSLRLSCAASGFNISYYSMHWVRQAPGKGLEWVASISSSYSSTYYADSVKGRFTISADTSKNTAYLQMNSLRAEDTAVYYCARGYWYVYVGWGAYYGPVGMDYWGQGTLVTVSSASTKGPSVFPLAPSSKSTSGGTAALGCLVKDYFPEPVTVSWNSGALTSGVHTFPAVLQSSGLYSLSSVVTVPSSSLGTQTYICNVNHKPSNTKVDKKVEPKSC
5 | 3.22 | 0.07 | 3.18 | 0.07 | 1.7 | 75.7 | D7 (Fab, selection round 2; also called Fzd7-R2-D7) light: DIQMTQSPSSLSASVGDRVTITCRASQSVSSAVAWYQQKPGKAPKLLIYSASSLYSGVPSRFSGSRSGTDFTLTISSLQPEDFATYYCQQSYVYYLITFGQGTKVEIKRTVAAPSVFIFPPSDSQLKSGTASVVCLLNNFYPREAKVQWKVDNALQSGNSQESVTEQDSKDSTYSLSSTLTLSKADYEKHKVYACEVTHQGLSSPVTKSFNRGECGGS heavy: EVQLVESGGGLVQPGGSLRLSCAASGFNISYYSMHWVRQAPGKGLEWVAYIYPYSSYTYYADSVKGRFTISADTSKNTAYLQMNSLRAEDTAVYYCARYHGFYGMDYWGQGTLVTVSSASTKGPSVFPLAPSSKSTSGGTAALGCLVKDYFPEPVTVSWNSGALTSGVHTFPAVLQSSGLYSLSSVVTVPSSSLGTQTYICNVNHKPSNTKVDKKVEPKSC
6 | 1.05 | 0.08 | 3.11 | 0.06 | 1.4 | 59.9 | F12 (Fab, selection round 2; also called Fzd7-R2-F12) light: DIQMTQSPSSLSASVGDRVTITCRASQSVSSAVAWYQQKPGKAPKLLIYSASSLYSGVPSRFSGSRSGTDFTLTISSLQPEDFATYYCQQAYAPFTFGQGTKVEIKRTVAAPSVFIFPPSDSQLKSGTASVVCLLNNFYPREAKVQWKVDNALQSGNSQESVTEQDSKDSTYSLSSTLTLSKADYEKHKVYACEVTHQGLSSPVTKSFNRGECGGS heavy: EVQLVESGGGLVQPGGSLRLSCAASGFNISYSYMHWVRQAPGKGLEWVASIYSSYSYTSYADSVKGRFTISADTSKNTAYLQMNSLRAEDTAVYYCARSSAWFGHAGFGGAMDYWGQGTLVTVSSASTKGPSVFPLAPSSKSTSGGTAALGCLVKDYFPEPVTVSWNSGALTSGVHTFPAVLQSSGLYSLSSVVTVPSSSLGTQTYICNVNHKPSNTKVDKKVEPKSC
7 | 0.37 | 0.07 | 2.05 | 0.06 | 0.9 | 50.5 | C10 (Fab, selection round 2; also called Fzd7-R2-C10) light: DIQMTQSPSSLSASVGDRVTITCRASQSVSSAVAWYQQKPGKAPKLLIYSASSLYSGVPSRFSGSRSGTDFTLTISSLQPEDFATYYCQQSAWWASLFTFGQGTKVEIKRTVAAPSVFIFPPSDSQLKSGTASVVCLLNNFYPREAKVQWKVDNALQSGNSQESVTEQDSKDSTYSLSSTLTLSKADYEKHKVYACEVTHQGLSSPVTKSFNRGECGGS heavy: EVQLVESGGGLVQPGGSLRLSCAASGFNISSYSIHWVRQAPGKGLEWVASIYPYSSYTYYADSVKGRFTISADTSKNTAYLQMNSLRAEDTAVYYCARYSGFAMDYWGQGTLVTVSSASTKGPSVFPLAPSSKSTSGGTAALGCLVKDYFPEPVTVSWNSGALTSGVHTFPAVLQSSGLYSLSSVVTVPSSSLGTQTYICNVNHKPSNTKVDKKVEPKSC
